Experimental data reported in US20210130436A1 (published 2021).

Legend:
[1] = molecular target: T1, human CD28 (human, UniProt P10747 19-220); assay: flow cytometry on Jurkat cells (CD28)
T1 construct: Endogenous CD28 on Jurkat/IL2 reporter cells

[2] = molecular target: T2, human CTLA-4 (human, UniProt P16410 36-223); assay: flow cytometry on CHO cells stably expressing CTLA4
T2 construct: also called huCTLA4

[3] = molecular target: T3, human PD-L1 (human, UniProt Q9NZQ7 19-290); assay: flow cytometry on CHO cells stably expressing PD-L1
T3 construct: also called huPD-L1; CD274

[4] = molecular target: T4, human PD-L1, expressed on CHO cells (human, UniProt Q9NZQ7 19-290); assay: flow cytometry on CHO cells stably expressing human PD-L1; PE anti-human Fc
T4 construct: Full-length surface expression construct transduced by lentivirus into CHO cells; also called huPD-L1; CD274

[5] = molecular target: T5, human CTLA-4 (CTLA4), expressed on CHO cells (human, UniProt P16410 36-223); assay: flow cytometry on CHO cells stably expressing human CTLA-4; PE anti-human Fc
T5 construct: Full-length surface expression construct transduced by lentivirus into CHO cells; also called huCTLA4

[6] = molecular target: T6, human CTLA4 (huCTLA4), full-length, stably expressed on CHO cells (human, UniProt P16410 36-223); assay: flow cytometry, CHO cells expressing huCTLA4
T6 construct: whole, on cells

[7] = molecular target: T7, human PD-L1 (huPD-L1), full-length, stably expressed on CHO cells (human, UniProt Q9NZQ7 19-290); assay: flow cytometry, CHO cells expressing huPD-L1
T7 construct: whole, on cells

[8] = molecular target: T8, CD28, endogenously expressed on Jurkat/IL2 reporter cells (human, UniProt P10747 19-220); assay: flow cytometry, Jurkat/IL2 reporter cells (endogenous CD28)
T8 construct: whole, on cells

[9] = molecular target: T7, human PD-L1 (huPD-L1), full-length, …; assay: flow cytometry; MFI on PD-L1 CHO cells over MFI on Jurkat cells (CD28)
[10] = molecular target: T6, human CTLA4 (huCTLA4), full-length, …; assay: flow cytometry, CHO cells expressing huCTLA4; MFI against WT CD80 of the table
[11] = molecular target: T7, human PD-L1 (huPD-L1), full-length, …; assay: flow cytometry, CHO cells expressing huPD-L1; MFI against WT CD80 of the table
[12] = molecular target: T8, CD28, endogenously expressed on …; assay: flow cytometry, Jurkat/IL2 reporter cells (endogenous CD28); MFI against WT CD80 of the table
[13] = molecular target: T9, CD96 (UniProt P40200 22-585, limits assumed); assay: flow cytometry on cells expressing CD96, Fc fusion at 100 nM
T9 construct: whole, on cells
T9 sequence (looked up): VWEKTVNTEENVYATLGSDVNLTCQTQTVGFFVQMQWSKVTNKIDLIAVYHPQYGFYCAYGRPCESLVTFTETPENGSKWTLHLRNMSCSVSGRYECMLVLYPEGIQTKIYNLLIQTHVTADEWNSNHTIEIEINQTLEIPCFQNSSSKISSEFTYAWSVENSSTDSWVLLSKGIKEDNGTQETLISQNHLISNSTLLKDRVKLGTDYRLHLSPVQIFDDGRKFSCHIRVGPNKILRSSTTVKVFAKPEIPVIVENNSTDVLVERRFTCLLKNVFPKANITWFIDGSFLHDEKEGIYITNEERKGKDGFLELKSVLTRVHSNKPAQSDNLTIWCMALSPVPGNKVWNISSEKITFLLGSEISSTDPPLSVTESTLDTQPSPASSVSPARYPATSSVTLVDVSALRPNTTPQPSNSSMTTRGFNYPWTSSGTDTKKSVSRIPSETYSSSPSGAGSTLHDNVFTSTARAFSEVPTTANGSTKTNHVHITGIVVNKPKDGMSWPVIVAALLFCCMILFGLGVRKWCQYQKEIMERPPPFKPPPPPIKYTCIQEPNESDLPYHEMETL

[14] = molecular target: T10, CD226 (UniProt Q15762 19-336); assay: flow cytometry on cells expressing CD226, Fc fusion at 100 nM
T10 construct: whole, on cells
T10 sequence (looked up): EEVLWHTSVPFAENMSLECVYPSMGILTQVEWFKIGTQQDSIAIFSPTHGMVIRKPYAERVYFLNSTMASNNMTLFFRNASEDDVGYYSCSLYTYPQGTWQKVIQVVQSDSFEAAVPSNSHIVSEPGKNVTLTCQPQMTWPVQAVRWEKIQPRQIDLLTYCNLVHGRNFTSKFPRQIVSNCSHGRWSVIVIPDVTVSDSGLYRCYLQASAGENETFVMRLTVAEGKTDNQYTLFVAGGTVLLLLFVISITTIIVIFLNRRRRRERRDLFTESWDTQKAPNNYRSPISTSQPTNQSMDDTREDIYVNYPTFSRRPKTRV

[15] = molecular target: T11, TIGIT (UniProt Q495A1 22-244); assay: flow cytometry on cells expressing TIGIT, Fc fusion at 100 nM
T11 construct: whole, on cells
T11 sequence (looked up): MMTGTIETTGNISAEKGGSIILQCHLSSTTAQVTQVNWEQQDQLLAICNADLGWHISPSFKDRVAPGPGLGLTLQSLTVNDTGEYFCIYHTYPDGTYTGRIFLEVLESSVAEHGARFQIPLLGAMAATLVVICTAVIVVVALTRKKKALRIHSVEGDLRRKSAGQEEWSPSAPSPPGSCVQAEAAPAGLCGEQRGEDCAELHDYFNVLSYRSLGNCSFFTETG

T7 sequence (Q9NZQ7 19-290): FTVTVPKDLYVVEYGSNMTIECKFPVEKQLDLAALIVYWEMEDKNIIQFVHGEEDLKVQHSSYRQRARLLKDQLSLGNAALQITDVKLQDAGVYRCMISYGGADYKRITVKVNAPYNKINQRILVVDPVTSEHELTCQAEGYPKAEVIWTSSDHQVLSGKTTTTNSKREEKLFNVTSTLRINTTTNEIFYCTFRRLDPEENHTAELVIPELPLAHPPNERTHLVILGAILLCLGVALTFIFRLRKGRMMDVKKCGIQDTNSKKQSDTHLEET
T4 sequence (Q9NZQ7 19-290): as above
T5 sequence (P16410 36-223): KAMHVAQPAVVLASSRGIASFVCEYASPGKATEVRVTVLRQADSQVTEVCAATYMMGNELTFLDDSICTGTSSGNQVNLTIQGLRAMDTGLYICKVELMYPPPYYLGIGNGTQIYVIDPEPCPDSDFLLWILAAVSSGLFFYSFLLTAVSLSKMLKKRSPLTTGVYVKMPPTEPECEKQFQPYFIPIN
T6 sequence (P16410 36-223): as above
T3 sequence (Q9NZQ7 19-290): as the sequence (Q9NZQ7 19-290) above
T2 sequence (P16410 36-223): as the sequence (P16410 36-223) above

Row | Binder | MFI at 33.3 nM [4] [MFI] | MFI at 33.3 nM [5] [MFI] | MFI at 33.3 nM [6] [MFI] | MFI at 33.3 nM [7] [MFI] | MFI at 33.3 nM [8] [MFI] | Ratio of PDL1:CD28 [9] [ratio] | Fold change to WT CD80 [10] [fold] | Fold change to WT CD80 [11] [fold] | Fold change to WT CD80 [12] [fold] | MFI at 100 nM [13] [MFI] | MFI at 100 nM [14] [MFI] | MFI at 100 nM [15] [MFI] | further results
1 | CD80 E35D/M47V/N48K/V68M/K89N IgV-Fc, (EAAAK)3 linker (Fc fusion, not shown: a dimerising Fc or GST) VIHVTKEVKEVATLSCGHNVSVEELAQTRIYWQKDKKMVLTMMSGDVKIWPEYKNRTIFDITNNLSIMILALRPSDEGTYECVVLKYENDAFKREHLAEVTLSVKADEAAAKEAAAKEAAAK |  |  |  |  |  |  |  |  |  |  |  |  | MFI at 33.3 nM [1]: 1280 MFI; MFI at 33.3 nM [2]: 27100 MFI; MFI at 33.3 nM [3]: 24500 MFI
2 | variant CD80 IgV-Fc E35D/M43I/M47V/K89N (Fc fusion, not shown: small tags and cut ends; a dimerising Fc or GST, Fc fusion of the variant IgV) VIHVTKEVKEVATLSCGHNVSVEELAQTRIYWQKDKKMVLTMISGDVNIWPEYKNRTIFDITNNLSIVILALRPSDEGTYECVVLKYENDAFKREHLAEVTLSVKAD | 19200 | 278000 |  |  |  |  |  |  |  |  |  |  | 
3 | variant CD80 IgV-Fc E35D/M47L/Y53F/V68M/A71G/K93R/E95V (Fc fusion, not shown: small tags and cut ends; a dimerising Fc or GST) VIHVTKEVKEVATLSCGHNVSVEELAQTRIYWQKDKKMVLTMMSGDLNIWPEFKNRTIFDITNNLSIMILGLRPSDEGTYECVVLKYEKDAFRRVHLAEVTLSVKAD |  |  | 16000 | 25000 | 383 | 65.3 | 9.1 | 486 | 12.2 |  |  |  | 
4 | variant CD80 IgV-Fc E35D/M47V/T62A/A71D/K93E (Fc fusion, not shown: small tags and cut ends; a dimerising Fc or GST, Fc fusion of the variant IgV) VIHVTKEVKEVATLSCGHNVSVEELAQTRIYWQKDKKMVLTMMSGDVNIWPEYKNRTIFDIANNLSIVILDLRPSDEGTYECVVLKYEKDAFEREHLAEVTLSVKAD | 693 | 226000 |  |  |  |  |  |  |  |  |  |  | 
5 | variant CD80 IgV-Fc E35D/M47V/N48K/V68M/L85M (Fc fusion, not shown: small tags and cut ends; a dimerising Fc or GST) VIHVTKEVKEVATLSCGHNVSVEELAQTRIYWQKDKKMVLTMMSGDVKIWPEYKNRTIFDITNNLSIMILALRPSDEGTYECVVMKYEKDAFKREHLAEVTLSVKAD |  |  | 15600 | 7620 | 245 | 31.1 | 8.9 | 148 | 7.8 |  |  |  | 
6 | variant CD80 IgV-Fc E35D/M38T/M43V/M47V/N48R/L85Q (Fc fusion, not shown: small tags and cut ends; a dimerising Fc or GST, Fc fusion of the variant IgV) VIHVTKEVKEVATLSCGHNVSVEELAQTRIYWQKDKKTVLTMVSGDVRIWPEYKNRTIFDITNNLSIVILALRPSDEGTYECVVQKYEKDAFKREHLAEVTLSVKAD | 21800 | 204000 |  |  |  |  |  |  |  |  |  |  | 
7 | variant CD80 IgV-Fc E35D/T41S/D46E/M47I/V68M/K93R/E95V (Fc fusion, not shown: small tags and cut ends; a dimerising Fc or GST) VIHVTKEVKEVATLSCGHNVSVEELAQTRIYWQKDKKMVLSMMSGEINIWPEYKNRTIFDITNNLSIMILALRPSDEGTYECVVLKYEKDAFRRVHLAEVTLSVKAD |  |  | 18400 | 14800 | 476 | 31.1 | 10.5 | 287 | 15.2 |  |  |  | 
8 | variant CD80 IgV-Fc Q33R/E35D/M47V/N48K/L85M/F92L (Fc fusion, not shown: small tags and cut ends; a dimerising Fc or GST, Fc fusion of the variant IgV) VIHVTKEVKEVATLSCGHNVSVEELAQTRIYWRKDKKMVLTMMSGDVKIWPEYKNRTIFDITNNLSIVILALRPSDEGTYECVVMKYEKDALKREHLAEVTLSVKAD | 21400 | 2680 |  |  |  |  |  |  |  |  |  |  | 
9 | variant CD80 IgV-Fc E35D/M47V/N48K/V68M/A71G/L85M (Fc fusion, not shown: small tags and cut ends; a dimerising Fc or GST) VIHVTKEVKEVATLSCGHNVSVEELAQTRIYWQKDKKMVLTMMSGDVKIWPEYKNRTIFDITNNLSIMILGLRPSDEGTYECVVMKYEKDAFKREHLAEVTLSVKAD |  |  | 16600 | 22800 | 302 | 75.4 | 9.5 | 442 | 9.6 |  |  |  | 
10 | variant CD80 IgV-Fc E35D/M43I/M47L/V68M (Fc fusion, not shown: small tags and cut ends; a dimerising Fc or GST) VIHVTKEVKEVATLSCGHNVSVEELAQTRIYWQKDKKMVLTMISGDLNIWPEYKNRTIFDITNNLSIMILALRPSDEGTYECVVLKYEKDAFKREHLAEVTLSVKAD |  |  | 16200 | 16900 | 1520 | 11.1 | 9.3 | 328 | 48.3 |  |  |  | 
11 | variant CD80 IgV-Fc Q33L/E35D/M43I/Y53F/T62S/L85Q (Fc fusion, not shown: small tags and cut ends; a dimerising Fc or GST, Fc fusion of the variant IgV) VIHVTKEVKEVATLSCGHNVSVEELAQTRIYWLKDKKMVLTMISGDMNIWPEFKNRTIFDISNNLSIVILALRPSDEGTYECVVQKYEKDAFKREHLAEVTLSVKAD | 72100 | 3980 |  |  |  |  |  |  |  |  |  |  | 
12 | CD155 S42G/S52L/Q62F/L104Q variant IgV-Fc fusion (Fc fusion, not shown: a dimerising Fc or GST) WPPPGTGDVVVQAPTQVPGFLGDSVTLPCYLQVPNMEVTHVGQLTWARHGELGSMAVFHQTFGPSYSESKRLEFVAARLGAELRNASLRMFGLRVEDEGNYTCQFVTFPQGSRSVDIWLRVL |  |  |  |  |  |  |  |  |  | 1640 | 2160 | 1920 | 
13 | CD155 S42N variant IgV-Fc fusion (Fc fusion, not shown: a dimerising Fc or GST) WPPPGTGDVVVQAPTQVPGFLGDSVTLPCYLQVPNMEVTHVNQLTWARHGESGSMAVFHQTQGPSYSESKRLEFVAARLGAELRNASLRMFGLRVEDEGNYTCLFVTFPQGSRSVDIWLRVL |  |  |  |  |  |  |  |  |  | 1690 | 1910 | 1820 | 
14 | CD155 S42V/S52E variant IgV-Fc fusion (Fc fusion, not shown: a dimerising Fc or GST) WPPPGTGDVVVQAPTQVPGFLGDSVTLPCYLQVPNMEVTHVVQLTWARHGEEGSMAVFHQTQGPSYSESKRLEFVAARLGAELRNASLRMFGLRVEDEGNYTCLFVTFPQGSRSVDIWLRVL |  |  |  |  |  |  |  |  |  | 2530 | 2270 | 2060 | 
15 | CD155 S42L variant IgV-Fc fusion (Fc fusion, not shown: a dimerising Fc or GST) WPPPGTGDVVVQAPTQVPGFLGDSVTLPCYLQVPNMEVTHVLQLTWARHGESGSMAVFHQTQGPSYSESKRLEFVAARLGAELRNASLRMFGLRVEDEGNYTCLFVTFPQGSRSVDIWLRVL |  |  |  |  |  |  |  |  |  | 1620 | 2190 | 1930 | 
16 | CD155 S42N/S52E/V57L/L104E variant IgV-Fc fusion (Fc fusion, not shown: a dimerising Fc or GST) WPPPGTGDVVVQAPTQVPGFLGDSVTLPCYLQVPNMEVTHVNQLTWARHGEEGSMALFHQTQGPSYSESKRLEFVAARLGAELRNASLRMFGLRVEDEGNYTCEFVTFPQGSRSVDIWLRVL |  |  |  |  |  |  |  |  |  | 1540 | 1740 | 1780 | 
